Assay results published in PMC8041789.

Columns and labels:
[1] = molecular target: von Willebrand factor-binding protein (recombinant vWbp) (S. aureus); test: AFM single-molecule force spectroscopy; vWF-modified tips probing vWbp-modified gold supports (NHS/EDC coupling); PBS; 10 µm x 10 µm areas
[2] = molecular target: clumping factor A (ClfA wild type) on S. aureus ClfA+ cells (S. aureus) (UniProt Q53653); test: AFM single-molecule force spectroscopy; vWbp-modified tips probing ClfA+ cells; contact time 500 ms before retraction; PBS
[3] = molecular target: clumping factor A (ClfA wild type) on S. aureus ClfA+ cells (S. aureus) (UniProt Q53653); test: AFM single-molecule force spectroscopy; vWbp-modified tips probing ClfA+ cells; minimum contact time (~100 ms); PBS

| Substance | binding frequency [1] [%] | rupture force [1] [pN] | binding frequency [2] [%] | rupture force [2] [pN] | binding frequency [3] [%] |
| --- | --- | --- | --- | --- | --- |
| von Willebrand factor (human plasma vWF) (from UniProt P04275 764-2813) (natural protein) | 24 | 136 |  |  |  |
| von Willebrand factor-binding protein (recombinant vWbp) (natural protein) |  |  | 11 | 446 | 3 |
